Source: PMC11748629, “Unidirectional MCM translocation away from ORC drives origin licensing” (Nature Communications, 2025)

Columns and labels:
Assay in all cases: negative stain EM with 2D averaging; DH loading reaction in solution, no downstream purification: 10 nM MH-NCP-ARS1-NCP DNA, 20 nM ORC, 30 nM Cdc6, 0.5 mM ATP, 20 nM MCM-Cdt1; 25 mM HEPES pH 7.6, 100 mM potassium chloride, 10 mM magnesium acetate, 1 mM DTT; 30 °C, 30 min; DH counted as % of averageable MCM particles, N = 3; assemblies form on DNA
[1] = target: MCM-Cdt1 complex with Mcm2 R676A (Arginine Finger variant) (Saccharomyces cerevisiae) (UniProt P29469)
[2] = target: MCM-Cdt1 complex with Mcm3 R542A (Arginine Finger variant) (Saccharomyces cerevisiae) (UniProt P29469)
[3] = target: MCM-Cdt1 complex with Mcm7 R593A (Arginine Finger variant) (Saccharomyces cerevisiae) (UniProt P29469)
[4] = target: MCM-Cdt1 complex, wild type (expressed in yeast) (Saccharomyces cerevisiae) (UniProt P29469)
[5] = target: MCM-Cdt1 complex with Mcm6 R708A (Arginine Finger variant) (Saccharomyces cerevisiae) (UniProt P29469)
[6] = target: MCM-Cdt1 complex with Mcm4 R701A (Arginine Finger variant) (Saccharomyces cerevisiae) (UniProt P29469)

## MCM-Cdt1 complex with Mcm2 R676A (Arginine Finger variant), P29469 1-868; P24279 1-971; P30665 1-933; P29496 1-775; P53091 1-1017; P38132 1-845; P47112 1-604
[1]
  DH as % of averageable MCM particles: 0.5%

## MCM-Cdt1 complex with Mcm3 R542A (Arginine Finger variant), P29469 1-868; P24279 1-971; P30665 1-933; P29496 1-775; P53091 1-1017; P38132 1-845; P47112 1-604
[2]
  DH as % of averageable MCM particles: 13.9%

## MCM-Cdt1 complex with Mcm7 R593A (Arginine Finger variant), P29469 1-868; P24279 1-971; P30665 1-933; P29496 1-775; P53091 1-1017; P38132 1-845; P47112 1-604
[3]
  DH as % of averageable MCM particles: 5.3%

## MCM-Cdt1 complex, wild type (expressed in yeast), P29469 1-868; P24279 1-971; P30665 1-933; P29496 1-775; P53091 1-1017; P38132 1-845; P47112 1-604
[4]
  DH as % of averageable MCM particles: 56.5%

## MCM-Cdt1 complex with Mcm6 R708A (Arginine Finger variant), P29469 1-868; P24279 1-971; P30665 1-933; P29496 1-775; P53091 1-1017; P38132 1-845; P47112 1-604
[5]
  DH as % of averageable MCM particles: 2.4%

## MCM-Cdt1 complex with Mcm4 R701A (Arginine Finger variant), P29469 1-868; P24279 1-971; P30665 1-933; P29496 1-775; P53091 1-1017; P38132 1-845; P47112 1-604
[6]
  DH as % of averageable MCM particles: 22.4%
